Results on three molecules are retold here after patent US20190233823 (AEROVIRUS TECHNOLOGIES INC., published 2019).

This series concerns the target P97 cilium adhesin ectodomain fragment (P97 peptidic complex, SELEX target section 768-925) (Mycoplasma hyopneumoniae). Briefly: ELONA. The following applies: tags: His (histidine labelled, Ni-NTA captured). As to the method:
Selected ssDNA molecules from each individual clone were biotinylated using the B-T3 which is same sequence with 5′ primer (T3 primer), and Klenow fragment (2 unit/ml). To prepare single stranded biotin conjugated APT3Cooc10 aptamer for the reverse screening. T3 Primer was Biotin labelled. A 96-well flat bottom ELISA plate was prepared by coating each well with 100 μl of streptavidin (100 μg/ml) diluted in 0.1 M NaHCO₃ following by a 37° C. overnight incubation. Following several washings with PBS, wells were blocked with 200 μl of PBS containing 1% BSA for 2 hours at room temperature and subsequent washing three times with PBS-T (10 mM PBS containing 0.05% (v/v) Tween-20). Thereafter, 100 μl of 2.5 pmole/100 μl biotinylated-ssDNA were added to the wells and incubated at 37° C. for 2 hours followed by washing four times with PBS-T. T3 primer was used as negative control. Following washing, 100 μl of fluid containing 2 μg histidine labelled P97 peptidic complex were added to the indicated wells and incubated at 37° C. for 2 hours. The wells were then washed for 4 times with PBS-T. The reverse screening assay was completed using the DAKO Mycoplasma Hyopneumoniae ELISA tests (K004311-9 kit, Oxoid Ltd, UK).

B1: APT3Cooc3 (ssDNA)
DNA: GCCTGTTGTGAGCCTCCTAACTAGCTCGTAGAAAAAAAATATAGCGTGTGCTGGGACTGCTCGGGATTGCGGACACATGCTTATTCTTGTCTCCC
In the case of B1, the binding result is “binds”.

B2: APT3Histo1 (ssDNA)
DNA: GCCTGTTGTGAGCCTCCTAACCGCACGTGGGTATTCTAAGTGCGGTAGCTCAATGGTGAGCGATGAGCATCATGCTTATTCTTGTCTCCC
Turning to B2, the binding result is “binds”.

B3: APT3Cooc10 (ssDNA)
DNA: GCCTGTTGTGAGCCTCCTAACGGGTATGACTACAGATGCAGGGCGGCCTGTAGCCTTGCATTGACAAGGGCATGCTTATTCTTGTCTCCC
B3: the binding result is given as “binds”.
